According to patent US20250009856A1, “METHODS FOR TREATING RESPIRATORY DISEASES” (MUCPharm Pty Ltd, priority 2021, published 2025):

Key:
[1] = tested on: New Zealand white rabbits; assay: Pilot study: safety of inhaled bromelain in rabbits; conditions: rabbit, in vivo
Source text: In this pilot study. […] Ten minutes waiting period was kept between Salbutamol administration and treatment. Each rabbit received one cumulative dose of bromelain using a nebulizer and a v-gel supraglottal airway device as below. The pilot study was divided into 2 experiments as follows:
Experiment 1: Two rabbits were used in the first bromelain aerosol administration experiment. The first rabbit received an aerosol of physiological saline solution (0.9% NaCl), the second rabbit received aerosolized bromelain 0.1 mg/mL (accumulative dose of 0.19 mg in 1.9 mL saline), over 16 min inhalation period (Table 1).
Experiment 2: Three rabbits were used in the second bromelain aerosol administration experiment. The first rabbit received an aerosol of physiological saline solution (0.9% NaCl), the second one received aerosolized low dose of bromelain 0.01 mg/mL (accumulative dose of 0.025 mg bromelain in 2.5 mL saline), the third rabbit received aerosolized high dose of bromelain 0.1 mg/mL (accumulative dose of 0.25 mg bromelain in 2.5 mL saline), over 11 min inhalation period.
Rabbits were euthanized 48 h post-treatment using IV Sodium pentobarbitone 100 mg/kg while animals were sedated using isoflurane.

[2] = Sputum flow speed after mixing with BromAc, DNase and combinations; conditions: BR 250 ug/ml, NAC 20 mg/ml where present, 1 hour, 37 deg C
Protocol: (§1) Artificial sputa was prepared following methodology with ingredients as in earlier experiments. To 1.5 ml of artificial sputa in a vial was added 0.5 ml of reagent containing the required bromelain, NAC, DNase and their combinations. Control vials included 0.5 ml of PBS only. The mixture was vortex mixed and incubated in a shaker water bath at 37 deg C. At the end of 1 hour, the samples were retrieved, vortex mixed and equilibrated to ambient room temperature before measuring dynamic viscosity and pipette flow.
(§2) Dynamic viscosity was determined using the capillary tube method as in earlier experiments, whilst the pipette flow was evaluated using a 0.5 ml pipette inclined at 60 deg angle. The pipette flow was calculated as shown below.
Pipette flow (€)=0.45 ml sputa/time to empty (sec).

[3] = Dynamic viscosity after mixing with BromAc, DNase and combinations; conditions: for Dynamic viscosity (¥): heads: BR(25 ug/ml), NAC(20 mg/ml), BR(250 ug/ml) + NAC(20 ug/ml)
Protocol: as §1, §2

Molecule | activities, food and drink intake, breathing [1] | Sputum flow speed (€) ([2]; plus DNASE 2.0 ug/ml) | Sputum flow speed (€) ([2]; plus DNASE 4.0 ug/ml) | Sputum flow speed (€) ([2]; plus DNASE 6.0 ug/ml) | Sputum flow speed (€) ([2]; plus DNASE 8.0 ug/ml) | Sputum flow speed (€) ([2]; plus DNASE 20 ug/ml) | Sputum flow speed (€) ([2]; plus DNASE 10. ug/ml) | effect on dynamic viscosity compared with other treatment groups ([3]; DNase 2-20 μg/ml) | Dynamic viscosity (¥) ([3]; plus DNASE 2.0 ug/ml) | Dynamic viscosity (¥) ([3]; plus DNASE 4.0 ug/ml) | Dynamic viscosity (¥) ([3]; plus DNASE 6.0 ug/ml) | Dynamic viscosity (¥) ([3]; plus DNASE 8.0 ug/ml) | Dynamic viscosity (¥) ([3]; plus DNASE 20 ug/ml) | Dynamic viscosity (¥) ([3]; plus DNASE 10. ug/ml)
Bromelain | normal | – | – | – | – | – | – | – | – | – | – | – | – | –
DNASE: enzyme hydrolysing phosphodiester bonds of dsDNA; marketed under the brand name Pulmozyme for cystic fibrosis sputa (protein, UniProt P24855 23-282, looked up) Deoxyribonuclease-1: LKIAAFNIQTFGETKMSNATLVSYIVQILSRYDIALVQEVRDSHLTAVGKLLDNLNQDAPDTYHYVVSEPLGRNSYKERYLFVYRPDQVSAVDSYYYDDGCEPCGNDTFNREPAIVRFFSRFTEVREFAIVPLHAAPGDAVAEIDALYDVYLDVQEKWGLEDVMLMGDFNAGCSYVRPSQWSSIRLWTSPTFQWLIPDSADTTATPTHCAYDRIVVAGMLLRGAVVPDSALPFNFQAAYGLSDQLAQAISDHYPVEVMLK | – | 0.0627 mL/s | 0.075 mL/s | 0.082 mL/s | 0.09 mL/s | 0.1125 mL/s | 0.1044 mL/s | less compared to all the other treatment groups | 1.64 cSt | 1.60 cSt | 1.57 cSt | 1.514 cSt | 1.379 cSt | 1.472 cSt
